Numbering of substitutions follows the chain as printed.
T1: Human ICOS on cells (human, UniProt Q9Y6W8 21-199)
T1 sequence: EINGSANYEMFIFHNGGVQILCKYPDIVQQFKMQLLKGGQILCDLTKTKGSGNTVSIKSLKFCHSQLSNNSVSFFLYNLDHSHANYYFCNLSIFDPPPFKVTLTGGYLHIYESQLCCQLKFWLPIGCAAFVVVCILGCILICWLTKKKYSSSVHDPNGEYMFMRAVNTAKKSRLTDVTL

T2: human ICOS-mFc (Chimerigen) (human, UniProt Q9Y6W8 21-140)
T2 construct: also called human ICOS receptor; human ICOS Receptor; not shown: mouse Fc of the bought construct
T2 sequence: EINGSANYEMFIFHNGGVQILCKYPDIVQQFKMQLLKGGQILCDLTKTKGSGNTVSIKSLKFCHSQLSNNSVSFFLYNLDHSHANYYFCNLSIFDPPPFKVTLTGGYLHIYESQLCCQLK

T3: Cynomolgus ICOS on activated cynomolgus T cells (cynomolgus, UniProt Q9Y6W8 21-195 (human entry))
T3 construct: also called NHP ICOS
T3 chain: T1 sequence with T54K, H81R, A129T, L136F, S152T, D176G, V177T, L179P

T4: mouse ICOS-mFc (Chimerigen) (mouse, UniProt Q9WVS0 21-141, limits assumed)
T4 construct: also called mouse ICOS receptor; mouse ICOS Receptor; not shown: mouse Fc of the bought construct
T4 sequence: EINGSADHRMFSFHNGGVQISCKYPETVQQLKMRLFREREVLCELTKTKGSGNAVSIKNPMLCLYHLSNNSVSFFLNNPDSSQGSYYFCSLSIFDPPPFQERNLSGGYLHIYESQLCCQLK

T5: Human ICOS extracellular domain fused to human Fc (human, UniProt Q9Y6W8 21-140)
T5 construct: Dimeric protein made in house from NCBI NP_036224.1; also called hICOS; hICOS Fc; not shown: human Fc region
T5 sequence: T2 sequence

T6: Mouse ICOS extracellular domain fused to human Fc (mouse, UniProt Q9WVS0 21-141)
T6 construct: Made in house from NCBI NP_059508.2; also called mICOS; mICOS Fc; not shown: human Fc region
T6 sequence: T4 sequence

B1: STIM001 human IgG1 (antibody, V domains shown)
VH: QVQVVQSGAEVKKPGASVKVSCKASGYTFSTFGITWVRQAPGQGLEWMGWISAYNGDTNYAQNLQGRVIMTTDTSTSTAYMELRSLRSDDTAVYYCARSSGHYYYYGMDVWGQGTTVTVSS
VL: DIVMTQSPLSLPVTPGEPASISCRSSQSLLHSNEYNYLDWYLQKPGQSPQLLIFLGSNRASGVPDRFSGSGSGTDFTLKITRVEAEDVGIYYCMQSLQTPLTFGGGTKVEIKR
notes: Human IgG1 format; Conjugated with AF647 in the direct staining assays, coupled to beads or plates in the MJ cell assays; also called STIM001 (hIgG1); STIM001 hIgG1
B2: STIM005 human IgG4.PE (antibody, V domains shown)
VH: QVQLVQSGAEVKKPGASVKVSCKASGYTFNSYGIIWVRQAPGQGLEWMGWISVHNGNTNCAQKLQGRVTMTTDTSTSTAYMELRSLRTDDTAVYYCARAGYDILTDFSDAFDIWGHGTMVTVSS
VL: DIQMTQSPSSLSASVGDRVTITCRASQNINNFLNWYQQKEGKGPKLLIYAASSLQRGIPSTFSGSGSGTDFTLTISSLQPEDFATYICQQSYGIPWVGQGTKVEIK
notes: Human IgG4.PE (null-effector) format
B3: STIM002-B Fab (Fab, V domains shown)
VH: QVQLVQSGGEVKKPGASVKVSCKASGYTFTSYGFSWVRQAPGQGLEWMGWISAYNGNTNYAQKLQGRVTMTTDTSTSTAYMELRSLRSDDTAVYYCARSTYFYGSGTLYGMDVWGQGTTVTVSS
VL: DIVMTQSPLSLPVTPGEPASISCRSSQSLLHSDGYNCLDWYLQKPGQSPQLLIYLGSTRASGFPDRFSGSGSGTDFTLKISRVEAEDVGVYYCMQALQTPCSFGQGTKLEIK
notes: Recombinantly expressed purified Fab
B4: STIM006 Fab (Fab, V domains shown)
VH: QVQLVESGGGLVKPGGSLRLSCAASGFTFSDYFMSWIRQAPGKGLEWISYISSSGSTIYYADSVRGRFTISRDNAKYSLYLQMNSLRSEDTAVYYCARDHYDGSGIYPLYYYYGLDVWGQGTTVTVSS
VL: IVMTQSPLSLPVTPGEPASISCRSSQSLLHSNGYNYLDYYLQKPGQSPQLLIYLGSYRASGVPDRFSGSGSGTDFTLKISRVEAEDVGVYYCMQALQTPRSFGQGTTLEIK
notes: Purified Fab
B5: STIM003 Fab (Fab, V domains shown)
VH: EVQLVESGGGVVRPGGSLRLSCVASGVTFDDYGMSWVRQAPGKGLEWVSGINWNGGDTDYSDSVKGRFTISRDNAKNSLYLQMNSLRAEDTALYYCARDFYGSGSYYHVPFDYWGQGILVTVSS
VL: EIVLTQSPGTLSLSPGERATLSCRASQSVSRSYLAWYQQKRGQAPRLLIYGASSRATGIPDRFSGDGSGTDFTLSISRLEPEDFAVYYCHQYDMSPFTFGPGTKVDIK
notes: as for B3
B6: STIM001 Fab (Fab, V domains shown)
VH: B1 VH
VL: DIVMTQSPLSLPVTPGEPASISCRSSQSLLHSNEYNYLDWYLQKPGQSPQLLIFLGSNRASGVPDRFSGSGSGTDFTLKITRVEAEDVGIYYCMQSLQTPLTFGGGTKVEIK
notes: as for B3

Legend:
Human ICOS on cells [1] = target: T1, Human ICOS on cells; experiment: cell-based or functional assay
[2] = target: T2, human ICOS-mFc (Chimerigen); experiment: HTRF neutralisation of Alexa 647 human B7-H2 binding to human ICOS-mFc; human IgG1; mean, n = 4
Protocol: (§1) 5 μl of ICOS receptor (human ICOS-mFc, 20 nM, 5 nM final or mouse ICOS-mFc 4 nM, 1 nM final (Chimerigen)) was added to required wells. Plate was incubated for 1 hr at room temperature (RT).
(§2) Finally, 5 μl of anti-mouse IgG donor mAb (Southern Biotech) labelled with europium cryptate (Cis Bio), 40 nM, 10 nM final was added to each well and the assay was left in the dark at RT to incubate for a further 2 hours. After incubation, assay was read on Envision plate reader (Perkin Elmer) using a standard HTRF protocol. […] Titration curves and IC50 values [M] were plotted using Graphpad (Prism). IC50 values were calculated by first transforming the data using equation X=Log(X). The transformed data was then fitted using nonlinear regression, using fitting algorithm, log (inhibitor) vs. response—variable slope (four parameters).

Human ICOS on cells [3] = target: T1, Human ICOS on cells; experiment: cell-based or functional assay; remark: listed apart in the source
Human ICOS on cells [4] = target: T1, Human ICOS on cells; experiment: flow cytometry on activated human pan T cells (row Human), second donor column
Human ICOS on cells [5] = target: T1, Human ICOS on cells; experiment: flow cytometry on activated human pan T cells (row Human), first donor column
[6] = target: T3, Cynomolgus ICOS on activated cynomolgus …; experiment: flow cytometry, AF647 pre-labelled hIgG1 on activated cynomolgus pan T cells, donor 1
Protocol: PBMC from whole blood of 2 Mauritian cynomolgus macaques (Wickham Laboratories) were isolated by gradient centrifugation and cultured for 3 days with CD2/CD3/CD28 MACSiBeads (Miltenyi) to induce ICOS expression on their surface. […] Cells were also labelled with V450-CD3 to assess staining on T-cell subsets. Stained cells were run on Attune (Thermofisher) and staining intensity was presented as mean fluorescence intensity (MFI). EC50 was determined using GraphPad Prism.

Human ICOS on cells [7] = target: T1, Human ICOS on cells; experiment: cell-based or functional assay; remark: listed apart in the source
Human ICOS on cells [8] = target: T1, Human ICOS on cells; experiment: flow cytometry on activated primary human pan T cells; naked hIgG1 detected with AF647 goat anti-human Fc
Protocol: Pan T-cells (CD3 cells) were isolated and cultured for 3 days with CD3/CD28 dynabeads (Thermofisher) to induce ICOS expression on their surface. […] Stained cells were ran on the Attune and staining intensity was presented as Mean of fluorescence intensity (MFI). EC50 was determined using GraphPad Prism.

[9] = target: T4, mouse ICOS-mFc (Chimerigen); experiment: HTRF neutralisation of Alexa 647 mouse B7-H2 binding to mouse ICOS-mFc; human IgG1; mean, n = 3
Protocol: as §1, §2

[10] = target: T4, mouse ICOS-mFc (Chimerigen); experiment: HTRF neutralisation of Alexa 647 mouse B7-H2 binding to mouse ICOS-mFc; human IgG4.PE; mean, n = 3
Protocol: as §1, §2

[11] = target: T2, human ICOS-mFc (Chimerigen); experiment: HTRF neutralisation of Alexa 647 human B7-H2 binding to human ICOS-mFc; human IgG4.PE; mean, n = 4
Protocol: as §1, §2

[12] = target: T5, Human ICOS extracellular domain fused …; experiment: SPR (ProteOn XPR36), human ICOS ECD-Fc captured, Fab analyte, pH 7.4, 37 C
Protocol: (§3) In addition, a comparison was performed of antibody:antigen binding affinity at different pH values. As before, the dimeric human ICOS protein, presented as the extracellular domain of ICOS fused to a human Fc region, was captured on the anti-human Fc capture surface created using the 3 antibody cocktail, immobilised on the GLC biosensor chip by primary amine coupling. SPR analysis of recombinantly expressed anti-ICOS Fabs was carried out on the ProteOn XPR36 Array system (Biorad). The Fab fragments were used as analyte to generate binding sensorgrams, which were double referenced with a buffer injection (i.e., 0 nM). The subsequent referenced sensorgrams were fitted to the 1:1 model inherent to the ProteOn analysis software. […] Data were fitted to the 1:1 model.

[13] = target: T5, Human ICOS extracellular domain fused …; experiment: SPR (ProteOn XPR36), human ICOS ECD-Fc captured, Fab analyte, pH 5.5, 37 C
Protocol: as §3

[14] = target: T6, Mouse ICOS extracellular domain fused …; experiment: SPR (ProteOn XPR36), Fc-tagged ICOS captured on anti-human IgG, Fab analyte, 25 C
Protocol: (§4) Fab affinities of the ICOS leads were generated by SPR using the ProteOn XPR3 6 (BioRad). An anti-human IgG capture surface was created on a GLC biosensor chip by primary amine coupling, immobilising three anti-human IgG antibodies (Jackson Labs 109-005-008, 109-006-008 and 309-006-008). […] Binding sensorgrams were double referenced using a buffer injection (i.e. 0 nM), and the data was fitted to the 1:1 model inherent to the ProteOn XPR36 analysis software. The assay was run at 25° C. and using HBS-EP as running buffer.

[15] = target: T5, Human ICOS extracellular domain fused …; experiment: as above
Protocol: as §4

[16] = target: T5, Human ICOS extracellular domain fused …; experiment: SPR (ProteOn XPR36), human ICOS ECD-Fc captured, Fab analyte, pH 5.5, 37 C (second run)
Protocol: as §3

[17] = target: T5, Human ICOS extracellular domain fused …; experiment: SPR (ProteOn XPR36), human ICOS ECD-Fc captured, Fab analyte, pH 7.6, 25 C
[18] = target: T5, Human ICOS extracellular domain fused …; experiment: SPR (ProteOn XPR36), human ICOS ECD-Fc captured, Fab analyte, pH 7.6, 37 C
Protocol: as §3

| Binder | Kd [12] [nM] | Kd [13] [nM] | Kd [14] [nM] | Kd [15] [nM] | Kd [16] [nM] | Kd [17] [nM] | Kd [18] [nM] | also measured |
| --- | --- | --- | --- | --- | --- | --- | --- | --- |
| B1 | – | – | – | – | – | – | – | EC50 (Molar unit), NK primary cells ADCC assay on MJ cells, 2 hour time point, Donor 1 (Human ICOS on cells [1]): 0.121 nM; EC50 (Molar unit), NK primary cells ADCC assay on MJ cells, 2 hour time point, Donor 2 (Human ICOS on cells [1]): 0.529 nM; IC50 [2]: 2.2 nM; EC50 (Molar unit), NK primary cell ADCC assay on ICOS-transfected CCRF-CEM cells, 4 hour time point, Donor 4 (Human ICOS on cells [3]): 0.00392 nM; EC50 (Molar unit), NK primary cell ADCC assay on ICOS-transfected CCRF-CEM cells, 4 hour time point, Donor 5 (Human ICOS on cells [3]): 0.00395 nM; EC50 (Molar unit), NK primary cell ADCC assay on ICOS-transfected CCRF-CEM cells, 4 hour time point, Donor 6 (Human ICOS on cells [3]): 0.00375 nM; EC50 (Human ICOS on cells [4]): 121 nM; EC50 (Human ICOS on cells [5]): 221 nM; EC50 [6]: 222 nM; EC50 (Molar unit), NK primary cell ADCC assay on MJ cells, 2 hour time point, Donor 1 (Human ICOS on cells [7]): 0.121 nM; EC50 (Molar unit), NK primary cell ADCC assay on MJ cells, 2 hour time point, Donor 2 (Human ICOS on cells [7]): 0.529 nM; EC50 (Molar unit), NK primary cell ADCC assay on MJ cells, 2 hour time point, Donor 3 (Human ICOS on cells [7]): 2.92 nM; EC50 (Human ICOS on cells [8]): 17 nM; IC50 [9]: 6.5 nM |
| B2 | – | – | – | – | – | – | – | IC50 [10]: 0.3 nM; IC50 [11]: 1.6 nM |
| B3 | 41.8 | 26.6 | – | – | – | – | – | – |
| B4 | – | – | 318 | 13.8 | – | – | – | – |
| B5 | 1.71 | 1.02 | 0.4 | 1.3 | 1.15 | 1.31 | 1.98 | – |
| B6 | 63.5 | 73.1 | 407 | 44 | 80.3 | 44 | 42.6 | – |
